Results from patent publication US20240180856A1, “COMPOSITIONS, […] SYSTEMS, AND METHODS USEFUL IN TUMOR […]” (published 2024).
One block for each molecule: values may come before it. Positions of bridges follow the written chain, without caps; N, C: chain ends. Non-standard residues stand in square brackets, D forms with d. Groups on a side chain read outwards from the residue. Primed or numbered codes have the meaning given here. No end group written: not given here. *: point of attachment. DOTA = O=C(O)CN1CCN(CC(=O)O)CCN(CC(=O)*)CCN(CC(=O)O)CC1; Biotin = O=C1N[C@H]2[C@H](CS[C@H]2CCCCC(=O)*)N1; Butanoyl(4-(4-I-phenyl)) = O=C(CCCc1ccc(I)cc1)*; Butanoyl(4-(4-MePh)) = Cc1ccc(CCCC(=O)*)cc1; Lys(N3) = [N-]=[N+]=NCCCC[C@H](N)C(=O)O; FB = fluorobenzaldehyde oxime; PEG10′ = PEG spacer, 10 units; PEG3′ = PEG spacer, 3 units; PEG7′ = PEG linker, 7 units; AO = aminooxy group, NO*; Pra = C#CC[C@H](N)C(=O)O

Legend:
[1] = biological target: CD-1 mouse plasma proteins; assay: plasma protein binding, equilibrium dialysis, LC-MS/MS; control
human plasma proteins [2] = assay: as above
[3] = biological target: CD-1 mouse plasma proteins; assay: plasma protein binding, equilibrium dialysis, LC-MS/MS
human plasma proteins [4] = assay: as above
[5] = biological target: His-tagged FOLR1 human recombinant protein (11241-H08H, SinoBiological) (human) (UniProt P15328); assay: ELISA, against folate as reference
[6] = biological target: His-tagged FOLR1 human recombinant protein (11241-H08H, SinoBiological) (human) (UniProt P15328); assay: ELISA, linker screen
[7] = biological target: FOLR1 on OVCAR3 cells (human ovarian adenocarcinoma, FOLR1 (+) cell line) (human) (UniProt P15328); assay: flow cytometry on OVCAR3 cells, with 0.1 µg/mL free folate as competitor
[8] = biological target: mouse recombinant FOLR1 (rMuFOLR1) (mouse, UniProt P35846); assay: ELISA
[9] = biological target: His-tagged FOLR1 human recombinant protein (11241-H08H, SinoBiological) (human) (UniProt P15328); assay: ELISA
[10] = biological target: FOLR1 on OVCAR3 cells (human ovarian adenocarcinoma, FOLR1 (+) cell line) (human) (UniProt P15328); assay: flow cytometry on OVCAR3 cells, no folate
[11] = biological target: His-tagged FOLR1 human recombinant protein (11241-H08H, SinoBiological) (human) (UniProt P15328); assay: ELISA; remark: listed apart in the source
[12] = biological target: CD-1 mouse plasma proteins; assay: plasma protein binding; value marked (FB)
human plasma proteins [13] = assay: plasma protein binding; value marked (FB)
[14] = biological target: FOLR1 on OVCAR3 cells (human ovarian adenocarcinoma, FOLR1 (+) cell line) (human) (UniProt P15328)

B1: Compound #7327, folate-hshta-Gly-Phe-Lys(DOTA) (SEQ ID NO:6) (peptide)
peptide: [dH][dS][dH][dT][dA]GFK(DOTA)
modifications: not fully specified (residue 5, N-terminus, bridges); printed as folate-hshta-Gly-Phe-Lys(DOTA)
Plasma % Bound [3]: 40.9%
Plasma % Bound (human plasma proteins [4]): 40.3%

Molecule: Fol-[dH][dS][dH][dT][dA]K(FB) (not fully specified (residue 5, bridges)) [Compound #2, Fol-hshta-PEG3-Lys(FB)]
Plasma % Bound [3]: 20.2%
Plasma % Bound (human plasma proteins [4]): 43%

Molecule: Fol-[dH][dS][dH][dT][dA]K(Butanoyl(4-(4-MePh)))GFK(DOTA) (not fully specified (residue 5, bridges)) [Compound #6305, folate-hshta-Lys(MPBA)-Gly-Phe-Lys(DOTA) (SEQ ID NO:6)]
Plasma % Bound [3]: 96.3%
Plasma % Bound (human plasma proteins [4]): 98.3%

Molecule: Fol-[dH][dS][dH][dT][dA]K(Butanoyl(4-(4-MePh)))GFK([PEG3′-DOTA]) (not fully specified (residue 5, bridges)) [Compound #3302, Fol-hshta-Lys(4-MPBA)-Gly-Phe-Lys(PEG3-DOTA)]
Plasma % Bound [3]: 96.5%
Plasma % Bound (human plasma proteins [4]): 94.9%

Molecule: Fol-[dH][dS][dH][dT][dA]K(Butanoyl(4-(4-I-phenyl)))MVK(DOTA) (not fully specified (residue 5, bridges)) [Compound #1306, folate-hshta-Lys(IPBA)-M-V-Lys(DOTA) (SEQ ID NO:6)]
Plasma % Bound [3]: 97.1%
Plasma % Bound (human plasma proteins [4]): 97.3%

B2: Compound #1189, Fol-hshta-PEG3-Lys(DOTA) (peptide)
peptide: Fol-[dH][dS][dH][dT][dA]K(DOTA)
modifications: not fully specified (residue 5, bridges); printed as folate-hshta-PEG3-Lys(DOTA)
Plasma % Bound [3]: 29.5%
Plasma % Bound (human plasma proteins [4]): 46%

Molecule: Fol-[dH][dS][dH][dT][dA]GFK(AO) (not fully specified (residue 5, bridges); printed as Fol-hshta-Gly-Phe-Lys(AO)) [Compound #3303, Fol-hshta-Gly-Phe-Lys(AO)]
Plasma % Bound [12]: 75.5%
Plasma % Bound (human plasma proteins [13]): 81%

Molecule: Fol-G[dH][dS][dH][dT][dA] (not fully specified (residue 1, C-terminus, bridges)) [Folate-Gly-hshta heterobiligand]
EC50 [6]: 0.9 nM

Molecule: Fol-[dH][dS][dH][dT][dA]GFK(DOTA) (not fully specified (residue 5, bridges)) [Compound #6307, Fol-hshta-PEG3-Gly-Phe-Lys(DOTA)]
Plasma % Bound [3]: 40.6%
Plasma % Bound (human plasma proteins [4]): 41.3%

B7: Compound #2809, folate-hshta-PEG3-Lys(MPBA)-Lys(DOTA) (SEQ ID NO:6) (peptide)
peptide: Fol-[dH][dS][dH][dT][dA]K(Butanoyl(4-(4-MePh)))K(DOTA)
modifications: not fully specified (residue 5, bridges); printed as folate-hshta-PEG3-Lys(MPBA)-Lys(DOTA)
Plasma % Bound [3]: 92.1%
Plasma % Bound (human plasma proteins [4]): 83.3%

Molecule: Fol-[dH][dS][dH][dT][dA]K(Butanoyl(4-(4-I-phenyl)))GFK(DOTA) (not fully specified (residue 5, bridges)) [Compound #1307, folate-hshta-Lys(IPBA)-Gly-Phe-Lys(DOTA) (SEQ ID NO:6)]
Plasma % Bound [3]: 99.6%
Plasma % Bound (human plasma proteins [4]): 99.5%

B8: DyLight650-labeled folate-hshta (SEQ ID NO:6) Nterm heterobiligand (peptide)
peptide: Fol-[dH][dS][dH][dT][dA]
modifications: not fully specified (C-terminus, bridges); also: DyLight 650 label, site not given here
percentage of positively stained cells after acid wash (flow cytometry) [14]: 54.2%

Molecule: {Fol-PEG7′}-[dH][dS][dH][dT][dA] (also: triazole macrocycle (Pra/Az4 click), ends not placed) [Folate-PEG7-hshta heterobiligand]
EC50 [6]: 1 nM

Molecule: Fol-P[dH][dS][dH][dT][dA] (not fully specified (residue 1, C-terminus, bridges)) [Folate-Pro-hshta heterobiligand]
EC50 [6]: 0.9 nM

The remaining lines, values ahead:

Plasma % Bound [1]: 62.4%
Plasma % Bound (human plasma proteins [2]): 59.4%
Molecule: Octreotide Acetate (peptide)

fold greater affinity than folate itself [5]: 30 fold
EC50 [6]: 0.18 nM
percentage of OVCAR3 cells binding [7]: 57%
EC50 [8]: 0.33 nM
EC50 [9]: 0.35 nM
percentage of OVCAR3 cells binding [10]: 76.6%
EC50 [11]: 0.065 nM
Molecule: Fol-[dH][dS][dH][dT][dA][PEG10′][PEG10′]K(Biotin) (not fully specified (bridges); printed as folate-hshta) [folate-hshta (SEQ ID NO:6) NTerm heterobiligand, Folate-hshta-PEG10-PEG10-K(Biotin)]

EC50 [11]: > 10000 nM
Molecule: [Pra][dK][dY][dE][dE][dT][Lys(N3)] (triazole N-C) [kyeet (SEQ ID NO:9) macrocyclic peptide ligand (PCC)]

EC50 [8]: 2100 nM
EC50 [9]: 3400 nM
EC50 [11]: 3920 nM
Molecule: [Pra][dH][dS][dH][dT][dA][Lys(N3)] (triazole N-C; also: further groups not given here) [hshta (SEQ ID NO:6) macrocyclic peptide ligand (PCC)]

EC50 [11]: 0.149 nM
B3: folate-kyeet Tz heterobiligand (peptide)
peptide: [dK][dY][dE][dE][dT][Lys(N3)]
modifications: triazole N-C; not fully specified (N-terminus); also: folate joined through PEG linker and Tz (triazole) attachment

EC50 [6]: 0.28 nM
Molecule: [Pra][dD][dE][dR][dY][dT][Lys(N3)] (triazole N-C; also: conjugated to folate, attachment not said) [folate-deryt (SEQ ID NO:20) heterobiligand (construct not specified)]

EC50 [11]: 0.16 nM
B4: Lys(PEG3-Folate)-deryt heterobiligand (peptide)
peptide: K[dD][dE][dR][dY][dT]
modifications: not fully specified (residue 1, C-terminus, bridges); also: macrocycle (click Pra/Az4 or amide variant), ends not placed

EC50 [11]: 0.107 nM
B5: folate-hshta Tz heterobiligand (peptide)
peptide: [dH][dS][dH][dT][dA][Lys(N3)]
modifications: triazole N-C; not fully specified (N-terminus); also: folate joined through PEG linker and Tz (triazole) attachment

EC50 [11]: 0.098 nM
Molecule: Fol-[dH][dS][dH][dT][dA]K(DOTA)[PEG10′][PEG10′]K(Biotin) (not fully specified (some residues, bridges); printed as Folate-hshta-DOTA) [Folate-hshta-DOTA: folate-hshta with the tag Lys(DOTA)-PEG10-PEG10-Lys(Biotin)]

EC50 [11]: 0.11 nM
Molecule: Fol-[dH][dS][dH][dT][dA]K(Butanoyl(4-(4-MePh)))[PEG10′][PEG10′]K(Biotin) (not fully specified (some residues, bridges); printed as Folate-hshta-MPBA) [Folate-hshta-MPBA: folate-hshta with the tag Lys(4-MPBA)-PEG10-PEG10-Lys(Biotin)]

EC50 [11]: 0.27 nM
B6: Pra(Az4-PEG3-folate)-deryt heterobiligand (peptide)
peptide: [dD][dE][dR][dY][dT][Lys(N3)]
modifications: triazole N-C; not fully specified (N-terminus); printed as Pra(Az4-PEG3-folate)-deryt; also: N-terminal Pra joined by Tz (triazole) linker to Az4-PEG3-folate

EC50 [11]: 10000 nM
Molecule: [Pra][dD][dE][dR][dY][dT][Lys(N3)] (triazole N-C) [deryt (SEQ ID NO:20) macrocyclic peptide ligand (PCC)]
